To fix the notation:
B1: ORC1-180-240-His (domain or fragment)
chain: QESAAKCQKPVRAKSKSAESPSWTPAEHVAKRIESRHSASKSRQTPTHPLTPRARKRLELG
B9: MBP-ORC1-230-400 (domain or fragment)
chain: TPRARKRLELGNLGNPQMSQQTSCASLDSPGRIKRKVAFSEITSPSKRSQPDKLQTLSPALKAPEKTRETGLSYTEDDKKASPEHRIILRTRIAASKTIDIREERTLTPISGGQRSSVVPSVILKPENIKKRDAKEAKAQNEATSTPHRIRRKSSVLTMNRIRQQLRFLGN

Holding throughout (test): pull-down
The assay “MBP-ORC1-230-400” deals with B9.
In the next assay the target is T1, MBP-ORC1 (human, UniProt Q13415 1-861).
T1 sequence: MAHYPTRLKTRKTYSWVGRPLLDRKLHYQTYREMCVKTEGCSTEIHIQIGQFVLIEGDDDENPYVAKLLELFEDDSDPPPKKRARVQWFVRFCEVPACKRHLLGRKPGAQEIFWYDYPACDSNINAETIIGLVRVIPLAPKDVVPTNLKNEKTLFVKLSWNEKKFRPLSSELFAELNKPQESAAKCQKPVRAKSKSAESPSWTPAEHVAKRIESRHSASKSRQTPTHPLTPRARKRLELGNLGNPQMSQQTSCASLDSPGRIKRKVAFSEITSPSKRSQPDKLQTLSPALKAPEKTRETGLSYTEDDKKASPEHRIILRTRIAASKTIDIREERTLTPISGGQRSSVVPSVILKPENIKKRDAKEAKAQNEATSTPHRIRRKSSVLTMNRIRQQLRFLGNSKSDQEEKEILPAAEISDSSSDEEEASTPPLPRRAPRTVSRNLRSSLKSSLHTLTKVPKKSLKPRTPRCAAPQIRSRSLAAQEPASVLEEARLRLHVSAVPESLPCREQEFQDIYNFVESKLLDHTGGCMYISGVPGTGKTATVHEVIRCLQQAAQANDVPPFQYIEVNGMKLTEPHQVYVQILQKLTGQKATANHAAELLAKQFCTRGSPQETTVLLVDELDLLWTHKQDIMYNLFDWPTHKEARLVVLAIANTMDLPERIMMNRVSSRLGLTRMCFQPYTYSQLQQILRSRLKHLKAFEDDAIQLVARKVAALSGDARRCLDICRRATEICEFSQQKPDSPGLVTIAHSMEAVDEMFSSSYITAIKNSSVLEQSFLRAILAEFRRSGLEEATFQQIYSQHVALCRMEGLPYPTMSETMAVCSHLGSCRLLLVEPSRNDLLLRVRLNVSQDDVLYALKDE

In the next assay the target is T2, ORC1 230-400-His (human, UniProt Q13415 230-400).
T2 sequence: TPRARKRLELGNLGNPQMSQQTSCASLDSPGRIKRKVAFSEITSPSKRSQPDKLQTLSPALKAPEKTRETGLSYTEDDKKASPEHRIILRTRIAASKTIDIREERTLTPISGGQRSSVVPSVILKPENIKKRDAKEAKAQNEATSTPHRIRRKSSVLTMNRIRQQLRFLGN

The target in the next assay is T3, GST-CDC6 (human, UniProt Q99741 1-560).
T3 sequence: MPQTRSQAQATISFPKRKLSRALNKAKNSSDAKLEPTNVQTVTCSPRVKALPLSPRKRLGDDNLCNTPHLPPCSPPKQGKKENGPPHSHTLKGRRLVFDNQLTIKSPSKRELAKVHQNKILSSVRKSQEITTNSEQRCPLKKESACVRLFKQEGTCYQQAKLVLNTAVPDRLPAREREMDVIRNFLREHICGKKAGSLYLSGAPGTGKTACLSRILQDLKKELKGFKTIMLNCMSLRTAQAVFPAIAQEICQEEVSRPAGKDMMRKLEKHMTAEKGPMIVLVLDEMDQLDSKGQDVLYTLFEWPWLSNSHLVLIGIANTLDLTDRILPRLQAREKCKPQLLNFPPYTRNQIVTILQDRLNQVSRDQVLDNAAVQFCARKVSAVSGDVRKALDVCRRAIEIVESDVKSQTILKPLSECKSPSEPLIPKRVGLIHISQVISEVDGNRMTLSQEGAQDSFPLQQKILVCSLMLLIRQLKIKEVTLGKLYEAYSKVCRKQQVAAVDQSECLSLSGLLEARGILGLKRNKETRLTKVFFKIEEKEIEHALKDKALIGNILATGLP

In the assay “ORC1-180-240-His” the target is B1.

On to B1, for which the binding result in the assay with MBP-ORC1-230-400 is “binds”.

B2: GST-CDC6 with internal deletion of 71-90 (natural protein)
chain: MPQTRSQAQATISFPKRKLSRALNKAKNSSDAKLEPTNVQTVTCSPRVKALPLSPRKRLGDDNLCNTPHLLKGRRLVFDNQLTIKSPSKRELAKVHQNKILSSVRKSQEITTNSEQRCPLKKESACVRLFKQEGTCYQQAKLVLNTAVPDRLPAREREMDVIRNFLREHICGKKAGSLYLSGAPGTGKTACLSRILQDLKKELKGFKTIMLNCMSLRTAQAVFPAIAQEICQEEVSRPAGKDMMRKLEKHMTAEKGPMIVLVLDEMDQLDSKGQDVLYTLFEWPWLSNSHLVLIGIANTLDLTDRILPRLQAREKCKPQLLNFPPYTRNQIVTILQDRLNQVSRDQVLDNAAVQFCARKVSAVSGDVRKALDVCRRAIEIVESDVKSQTILKPLSECKSPSEPLIPKRVGLIHISQVISEVDGNRMTLSQEGAQDSFPLQQKILVCSLMLLIRQLKIKEVTLGKLYEAYSKVCRKQQVAAVDQSECLSLSGLLEARGILGLKRNKETRLTKVFFKIEEKEIEHALKDKALIGNILATGLP
B2: in the assay with MBP-ORC1, the binding result is on record as “binds”.

B3: GST-CDC6 1-110 (domain or fragment)
chain: MPQTRSQAQATISFPKRKLSRALNKAKNSSDAKLEPTNVQTVTCSPRVKALPLSPRKRLGDDNLCNTPHLPPCSPPKQGKKENGPPHSHTLKGRRLVFDNQLTIKSPSKR
On to B3, for which the binding result with MBP-ORC1 was “binds”.

B4: GST-CDC6 with internal deletion of 11-20 (natural protein)
chain: MPQTRSQAQARALNKAKNSSDAKLEPTNVQTVTCSPRVKALPLSPRKRLGDDNLCNTPHLPPCSPPKQGKKENGPPHSHTLKGRRLVFDNQLTIKSPSKRELAKVHQNKILSSVRKSQEITTNSEQRCPLKKESACVRLFKQEGTCYQQAKLVLNTAVPDRLPAREREMDVIRNFLREHICGKKAGSLYLSGAPGTGKTACLSRILQDLKKELKGFKTIMLNCMSLRTAQAVFPAIAQEICQEEVSRPAGKDMMRKLEKHMTAEKGPMIVLVLDEMDQLDSKGQDVLYTLFEWPWLSNSHLVLIGIANTLDLTDRILPRLQAREKCKPQLLNFPPYTRNQIVTILQDRLNQVSRDQVLDNAAVQFCARKVSAVSGDVRKALDVCRRAIEIVESDVKSQTILKPLSECKSPSEPLIPKRVGLIHISQVISEVDGNRMTLSQEGAQDSFPLQQKILVCSLMLLIRQLKIKEVTLGKLYEAYSKVCRKQQVAAVDQSECLSLSGLLEARGILGLKRNKETRLTKVFFKIEEKEIEHALKDKALIGNILATGLP
As for B4, in the assay with MBP-ORC1, the binding result is given as “binds”.

B5: GST-CDC6 with internal deletion of 21-30 (natural protein)
chain: MPQTRSQAQATISFPKRKLSDAKLEPTNVQTVTCSPRVKALPLSPRKRLGDDNLCNTPHLPPCSPPKQGKKENGPPHSHTLKGRRLVFDNQLTIKSPSKRELAKVHQNKILSSVRKSQEITTNSEQRCPLKKESACVRLFKQEGTCYQQAKLVLNTAVPDRLPAREREMDVIRNFLREHICGKKAGSLYLSGAPGTGKTACLSRILQDLKKELKGFKTIMLNCMSLRTAQAVFPAIAQEICQEEVSRPAGKDMMRKLEKHMTAEKGPMIVLVLDEMDQLDSKGQDVLYTLFEWPWLSNSHLVLIGIANTLDLTDRILPRLQAREKCKPQLLNFPPYTRNQIVTILQDRLNQVSRDQVLDNAAVQFCARKVSAVSGDVRKALDVCRRAIEIVESDVKSQTILKPLSECKSPSEPLIPKRVGLIHISQVISEVDGNRMTLSQEGAQDSFPLQQKILVCSLMLLIRQLKIKEVTLGKLYEAYSKVCRKQQVAAVDQSECLSLSGLLEARGILGLKRNKETRLTKVFFKIEEKEIEHALKDKALIGNILATGLP
With B5, in the assay with MBP-ORC1, the binding result is “binds”.

B6: GST-CDC6 with internal deletion of 51-70 (natural protein)
chain: MPQTRSQAQATISFPKRKLSRALNKAKNSSDAKLEPTNVQTVTCSPRVKAPPCSPPKQGKKENGPPHSHTLKGRRLVFDNQLTIKSPSKRELAKVHQNKILSSVRKSQEITTNSEQRCPLKKESACVRLFKQEGTCYQQAKLVLNTAVPDRLPAREREMDVIRNFLREHICGKKAGSLYLSGAPGTGKTACLSRILQDLKKELKGFKTIMLNCMSLRTAQAVFPAIAQEICQEEVSRPAGKDMMRKLEKHMTAEKGPMIVLVLDEMDQLDSKGQDVLYTLFEWPWLSNSHLVLIGIANTLDLTDRILPRLQAREKCKPQLLNFPPYTRNQIVTILQDRLNQVSRDQVLDNAAVQFCARKVSAVSGDVRKALDVCRRAIEIVESDVKSQTILKPLSECKSPSEPLIPKRVGLIHISQVISEVDGNRMTLSQEGAQDSFPLQQKILVCSLMLLIRQLKIKEVTLGKLYEAYSKVCRKQQVAAVDQSECLSLSGLLEARGILGLKRNKETRLTKVFFKIEEKEIEHALKDKALIGNILATGLP
Turning to B6, the binding result with MBP-ORC1 is listed as “binds”.

B7: MBP-ORC1-100-250 (domain or fragment)
chain: RHLLGRKPGAQEIFWYDYPACDSNINAETIIGLVRVIPLAPKDVVPTNLKNEKTLFVKLSWNEKKFRPLSSELFAELNKPQESAAKCQKPVRAKSKSAESPSWTPAEHVAKRIESRHSASKSRQTPTHPLTPRARKRLELGNLGNPQMSQQ
On to B7, for which the binding result with ORC1 230-400-His is “binds”.

B8: MBP-ORC1 1-240 (domain or fragment)
chain: MAHYPTRLKTRKTYSWVGRPLLDRKLHYQTYREMCVKTEGCSTEIHIQIGQFVLIEGDDDENPYVAKLLELFEDDSDPPPKKRARVQWFVRFCEVPACKRHLLGRKPGAQEIFWYDYPACDSNINAETIIGLVRVIPLAPKDVVPTNLKNEKTLFVKLSWNEKKFRPLSSELFAELNKPQESAAKCQKPVRAKSKSAESPSWTPAEHVAKRIESRHSASKSRQTPTHPLTPRARKRLELG
Consider B8, for which the binding result with GST-CDC6 is “binds”.
Still for that read-out and setting: to B9 belongs “binds”.

B10: MBP-ORC1-180-240 (domain or fragment)
chain: QESAAKCQKPVRAKSKSAESPSWTPAEHVAKRIESRHSASKSRQTPTHPLTPRARKRLELG
Turning to B10, the binding result with GST-CDC6 is reported as “binds”.

B11: MBP-ORC1-350-400 (domain or fragment)
chain: SVILKPENIKKRDAKEAKAQNEATSTPHRIRRKSSVLTMNRIRQQLRFLGN
As to B11, the binding result in the assay with GST-CDC6 and in the assay with ORC1-180-240-His was “binds” in each case.

B12: MBP-ORC1-230-400 A-A (domain or fragment)
chain: TPRARARAELGNLGNPQMSQQTSCASLDSPGRIKRKVAFSEITSPSKRSQPDKLQTLSPALKAPEKTRETGLSYTEDDKKASPEHRIILRTRIAASKTIDIREERTLTPISGGQRSSVVPSVILKPENIKKRDAKEAKAQNEATSTPHRIRRKSSVLTMNRIRQQLRFLGN
Consider B12, for which, in the assay with GST-CDC6, the binding result is on record as “binds”.

B13: MBP-ORC1 180-400 (domain or fragment)
chain: QESAAKCQKPVRAKSKSAESPSWTPAEHVAKRIESRHSASKSRQTPTHPLTPRARKRLELGNLGNPQMSQQTSCASLDSPGRIKRKVAFSEITSPSKRSQPDKLQTLSPALKAPEKTRETGLSYTEDDKKASPEHRIILRTRIAASKTIDIREERTLTPISGGQRSSVVPSVILKPENIKKRDAKEAKAQNEATSTPHRIRRKSSVLTMNRIRQQLRFLGN
In the case of B13, the binding result with GST-CDC6 is “binds”.

B14: MBP-ORC1 fragment (165-250) (domain or fragment)
chain: FRPLSSELFAELNKPQESAAKCQKPVRAKSKSAESPSWTPAEHVAKRIESRHSASKSRQTPTHPLTPRARKRLELGNLGNPQMSQQ
As for B14, in the assay with GST-CDC6, the binding result was “binds”.

For the origin of these results see paper doi:10.1101/681668 (bioRxiv, 2019).
